Reference: patent EP3240566B1 (Development Center for Biotechnology, dated 2020)

Tests used:
[1] = target: T1, human ENO1 protein (human, UniProt P06733 1-434); assay: SPR, BIAcore 2000, ENO1 injected, 25 degree C, 1:1 Langmuir
T1 construct: also called ENOl; alpha-enolase

[2] = target: T1, human ENO1 protein; assay: ENO1 binding ELISA

T1 sequence (P06733 whole entry): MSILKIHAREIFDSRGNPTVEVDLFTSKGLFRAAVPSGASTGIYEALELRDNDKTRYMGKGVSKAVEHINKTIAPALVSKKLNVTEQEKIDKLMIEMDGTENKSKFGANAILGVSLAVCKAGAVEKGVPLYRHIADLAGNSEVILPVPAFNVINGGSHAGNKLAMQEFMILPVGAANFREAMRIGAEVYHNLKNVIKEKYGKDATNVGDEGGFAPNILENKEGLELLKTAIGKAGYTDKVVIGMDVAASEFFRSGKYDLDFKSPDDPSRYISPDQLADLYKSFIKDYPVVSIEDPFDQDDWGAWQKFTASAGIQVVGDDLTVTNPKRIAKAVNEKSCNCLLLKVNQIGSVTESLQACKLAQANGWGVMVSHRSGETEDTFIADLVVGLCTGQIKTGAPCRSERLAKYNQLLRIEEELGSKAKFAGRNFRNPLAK

Kd [1] [nM] | Kd [2] [nM] | Binder
0.219 | 0.0365 | hum EN10 mAb IMGT (antibody, IgG1, V domains shown, also called humanized EN10 mAb IMGT; Hum EN10 IMGT) VH: QVQLVQSGAEVKKPGASVKVSCKASGYTFTSCVMNWVRQAPGQGLEWMGYINPYNDGTKYNEKFKGRVTMTTDTSTSTAYMELRSLRSDDTAVYYCAREGFYYGNFDNWGQGTLVTVSS VL: DIQMTQSPSSLSASVGDRVTITCRASENIYSYLTWYQQKPGKAPKLLIYNAKTLPEGVPSRFSGSGSGTDFTLTISSLQPEDFATYYCQHHYGTPYTFGQGTKLEIKR
0.5 |  | hum EN10 mAb 4D5 (antibody, IgG1, V domains shown, also called humanized EN10 mAb 4D5; hum ENO10mAb 4D5) VH: EVQLVESGGGLVQPGGSLRLSCAASGYTFTSCVMNWVRQAPGKGLEWVAYINPYNDGTKYNEKFKGRFTISRDDSKNTLYLQMNSLRAEDTAVYYCAREGFYYGNFDNWGQGTLVTVSS VL: DIQMTQSPSSLSASVGDRVTITCRASENIYSYLTWYQQKPGKAPKLLIYNAKTLPEGVPSRFSGSGSGTDFTLTISSLQPEDFATYYCQHHYGTPYTFGQGTKLEIKR
